The conditions of the data set: Streptomyces albogriseolus, Thermal, DSC, reversible: yes, whole UniProt chain shown.

B1: Subtilisin inhibitor wild type, P01006 (protein)
chain: MRNTGAGPSPSVSRPPPSAAPLSGAALAAPGDAPSALYAPSALVLTVGKGVSATTAAPERAVTLTCAPGPSGTHPAAGSACADLAAVGGDLNALTRGEDVMCPMVYDPVLLTVDGVWQGKRVSYERVFSNECEMNAHGSSVFAF
B1: the unfolding free energy by setting is: (pH 3.2, 53.36 °C, glycine 25 mM) 5.55 kcal/mol; (pH 7, 82.21 °C, Sodium phosphate 25 mM) 6.03 kcal/mol; (pH 9.5, 80.7 °C, glycine 25 mM) 6.04 kcal/mol. Further, the Tm (commonly the temperature at which the thermal transition is half complete) is, setting by setting: (pH 3.2, glycine 25 mM) 53.4 °C; (pH 7, Sodium phosphate 25 mM) 82.2 °C; (pH 9.5, glycine 25 mM) 80.7 °C. Also, the “unfolding enthalpy (calorimetric)” value by setting is: (pH 3.2, glycine 25 mM) 106 kcal/mol; (pH 7, Sodium phosphate 25 mM) 190 kcal/mol; (pH 9.5, glycine 25 mM) 186 kcal/mol.
